Experimental findings from paper PMC8033513, “Targeting netrin‐3 in small cell lung cancer and neuroblastoma” (EMBO Molecular Medicine, 2021) are described below.

The chains are these.
B3: chicken netrin‐2L (netrin‐2‐like) (ligand)
chain: not shown
notes: netrin-2 (netrin-2-like), chicken, used in place of human netrin-3 as its ortholog; Used because recombinant human netrin-3 was not soluble; also called NTN2L; NTN‐2L; source: recombinant

The target of assay [1] is B3. The assay is described as follows: BLI; OctetRED96; netrin-1 or netrin-2 coated on HIS1K biosensors, UNC5 ECDs in solution at 3.12-100 nM; 30°C, 1,000 rpm, PBS, 0.02% Tween-20, 0.1% BSA; 5 min association, 5 min dissociation; 1:1 binding model. The note with it: both partners purified.
Assay [2] concerns the target T1, extra‐cellular domain (ECD) of mouse DCC (mouse, UniProt P70211 26-1097).
T1 construct: DCC (deleted in colorectal carcinoma), mouse, extracellular domain; The Fc is inferred from the capture on AHC biosensors; also called mDCC; source: recombinant
The assay is described as follows: BLI; OctetRED96; ECDs of mNeogenin or mDCC coated on AHC biosensors, hNetrin-1 or chNetrin-2 in solution at 3.12-100 nM; 30°C, PBS, 0.02% Tween-20, 0.1% BSA with 1 µg/ml Dextran 5,000; 1:1 binding model. The settings on record: both partners purified.

T1 sequence (P70211 26-1097): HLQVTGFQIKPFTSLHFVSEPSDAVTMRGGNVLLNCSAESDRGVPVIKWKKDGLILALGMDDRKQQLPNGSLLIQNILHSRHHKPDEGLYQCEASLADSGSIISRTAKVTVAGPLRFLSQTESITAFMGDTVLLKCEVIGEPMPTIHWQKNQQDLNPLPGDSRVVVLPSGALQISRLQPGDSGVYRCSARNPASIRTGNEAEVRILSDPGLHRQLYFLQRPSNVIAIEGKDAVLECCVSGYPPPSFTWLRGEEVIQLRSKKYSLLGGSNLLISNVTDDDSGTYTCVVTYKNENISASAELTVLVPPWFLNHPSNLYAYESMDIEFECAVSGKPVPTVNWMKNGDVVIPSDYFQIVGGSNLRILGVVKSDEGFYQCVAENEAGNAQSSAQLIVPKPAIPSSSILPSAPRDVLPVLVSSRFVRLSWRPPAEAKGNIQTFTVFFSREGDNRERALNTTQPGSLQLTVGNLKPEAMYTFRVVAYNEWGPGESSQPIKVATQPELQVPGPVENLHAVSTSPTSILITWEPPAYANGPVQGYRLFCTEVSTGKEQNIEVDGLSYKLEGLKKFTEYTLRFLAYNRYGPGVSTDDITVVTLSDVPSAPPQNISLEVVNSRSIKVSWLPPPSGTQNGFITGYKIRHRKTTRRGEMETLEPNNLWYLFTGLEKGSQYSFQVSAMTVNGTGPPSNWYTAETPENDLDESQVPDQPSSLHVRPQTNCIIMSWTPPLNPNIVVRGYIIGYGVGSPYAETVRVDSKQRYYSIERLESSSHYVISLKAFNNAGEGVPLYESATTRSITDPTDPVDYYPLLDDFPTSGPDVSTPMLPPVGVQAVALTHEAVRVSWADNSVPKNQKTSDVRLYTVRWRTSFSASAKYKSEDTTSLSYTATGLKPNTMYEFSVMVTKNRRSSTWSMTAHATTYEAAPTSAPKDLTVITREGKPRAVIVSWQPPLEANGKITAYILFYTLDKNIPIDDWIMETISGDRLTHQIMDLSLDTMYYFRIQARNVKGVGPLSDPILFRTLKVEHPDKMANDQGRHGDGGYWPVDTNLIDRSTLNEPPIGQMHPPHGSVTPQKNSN

B1: extra‐cellular domain (ECD) of rat UNC5H2 (Fc fusion)
chain: not shown
notes: UNC5H2 (UNC5B), rat, extracellular domain; The Fc is inferred from the capture on AHC biosensors in the antagonism test; also called rUNC5H2; UNC5‐B; source: recombinant
In the case of B1, in assay [1], the binding result is listed as “binds”.

B2: extra‐cellular domain (ECD) of human UNC5H1 (domain or fragment)
chain: not shown
notes: UNC5H1 (UNC5A), human, extracellular domain; it may be an Fc chimera like the other ECDs; also called hUNC5H1; UNC5A; source: recombinant
For the molecule B2, in assay [1], the binding result is given as “binds”.
Take B3: the binding result in assay [2] is listed as “binds”.

B4: extra‐cellular domain (ECD) of human UNC5H3 (domain or fragment)
chain: not shown
notes: UNC5H3 (UNC5C), human, extracellular domain; it may be an Fc chimera like the other ECDs; also called hUNC5H3; UNC5‐C; source: recombinant
In the case of B4, the binding result in assay [1] is given as “binds”.
